# Test results: FireProtDB (doi:10.1021/bi020450z)
# B1: Adrenodoxin, mitochondrial, P00257 (parent)
# chain: MAARLLRVASAALGDTAGRWRLLARPRAGAGGLRGSRGPGLGGGAVATRTLSVSGRAQSSSEDKITVHFINRDGETLTTKGKIGDSLLDVVVQNNLDIDGFGACEGTLACSTCHLIFEQHIFEKLEAITDEENDMLDLAYGLTDRSRLGCQICLTKAMDNMTVRVPDAVSDARESIDMGMNSSKIE
# Variants of: B1
# Details: Bos taurus, reversible: YES, structure 1AYF, whole UniProt chain shown; for denaturant m value / denaturant midpoint (higher = more stable) / unfolding free energy: pH 7.5, 20 °C, GdnHCl, Fluorescence, Tris-HCl 50 mM; for Tm / change of melting temperature, mutant - wild type (higher = more stable): pH 8.5, Thermal, CD, Glycine
Variant,denaturant m value [kcal/mol/M],denaturant midpoint (higher = more stable) [M],unfolding free energy [kcal/mol],Tm [°C],"change of melting temperature, mutant - wild type (higher = more stable) [°C]"
F101W,2.19,1.5,3.28,45.4,-6.5
F117W,2.09,1.01,2.12,37.3,-14.6
F122W,2.28,1.82,4.17,48.7,-3.2
Y140W,–,–,–,51.2,-0.7
F69W,–,–,–,46.6,-5.3
